According to patent US20230212549A1 (3B PHARMACEUTICALS, published 2023):
“And” between values parts separate entries of the source, which are not always exact repeats. Identical values can stand only once. Numbered stars: 1 amine (or outer) side, 2 acyl side, 3 side chain; on linkers, the order of the positions; unused ones are H or OH. Bridge positions count the residues as written; N and C are the ends. Square brackets hold non-standard residues; d marks the D form. Primed or numbered codes have the meaning given here. * marks the point of attachment. tMeBn(DOTA-PP) = 1,3,5-trimethylbenzylidene, two thioethers to Cys, third CH2 bound to one N of piperazine whose other N bears DOTA, O=C(O)CN1CCN(CC(=O)O)CCN(CC(=O)N2CCN(Cc3cc(C[*:1])cc(C[*:2])c3)CC2)CCN(CC(=O)O)CC1; Ttds(6) = 1,13-Diamino-4,7,10-trioxatridecan-succinamic acid, O=C(CCC(=O)[*:2])NCCCOCCOCCOCCCN[*:1]; 3MeBn = 3-Methylbenzylidene (m-xylylene thioether bridge from α,α′-dibromo-m-xylene); N4Ac = 6-Carboxy-1,4,8,11-tetraazaundecane, an N4-chelator, NCCNCC(CNCCN)C(=O)*; APAc = 2-(4-(Amino)piperidin-1-yl)acetic acid, O=C(CN1CCC(N[*:1])CC1)[*:2]; 3MeBn(3) = 3-methylbenzylidene (m-xylylene), from α,α′-dibromo-m-xylene; mXylylene = c1cc(C[*:1])cc(C[*:2])c1; PentylNH‑urea = CCCCCNC(=O)*; Nle = CCCC[C@H](N)C(=O)O; Hexanoyl = CCCCCC(=O)*; Nleu = CC(C)CNCC(=O)O; Nlys = NCCCCNCC(=O)O

Tests used:
[1] = target: Recombinant human FAP (R&D systems, #3715-SE) (human, UniProt Q12884 26-760); experiment: cell-based or functional assay
[2] = target: T1, fibroblast activation protein (FAP) on FAP-expressing human WI-38 fibroblasts (human, UniProt Q12884 1-760); experiment: competitive FACS, WI-38 cells, vs Cy5 tracer m3; B = pIC50 7.1-8.0
T1 construct: also called human FAP

[3] = target: T2, Recombinant human FAP (R&D systems, #3715-SE) (human, UniProt Q12884 26-760); experiment: cell-based or functional assay; remark: listed apart in the source
[4] = target: T2, Recombinant human FAP (R&D systems, …); experiment: SPR (Biacore T200), FAP captured on anti-FAP antibody, single cycle kinetics

Binder | pIC50 Category (Activity) [1] | pIC50 Category (FACS) [2] | pIC50 Category (Activity) [3] [pIC50] | pKD Category [4] [pKD]
MCPPTQFC (N-term acetyl; D-Met1; Cys2/Cys8 thioether-bridged by tMeBn carrying DOTA-AET; C-term free acid, also called 3BP-3682) [Ac-met-[Cys(tMeBn(DOTA-AET))-Pro-Pro-Thr-Gln-Phe-Cys]-OH] | 7.1 pIC50 and 8 pIC50 | 7.1 pIC50 and 8 pIC50 | – | –
Hexanoyl-CPPTQFCD-NH2 (linker 1-7 via tMeBn(DOTA-NH), also called 3BP-3556) [Hex-[Cys(tMeBn(DOTA-NH))-Pro-Pro-Thr-Gln-Phe-Cys]-Asp-NH2] | 7.1 pIC50 and 8 pIC50 | 7.1 pIC50 and 8 pIC50 | – | –
Ac-MCPPTEFCAHFRD-NH2 (linker 2-8 via mXylylene; SMILES CSCC[C@H](NC(C)=O)C(=O)N[C@H]1CSCc2cccc(c2)CSC[C@@H](C(=O)N[C@@H](C)C(=O)N[C@@H](Cc2c[nH]cn2)C(=O)N[C@@H](Cc2ccccc2)C(=O)N[C@@H](CCCNC(=N)N)C(=O)N[C@@H](CC(=O)O)C(N)=O)NC(=O)[C@H](Cc2ccccc2)NC(=O)[C@H](CCC(=O)O)NC(=O)[C@H]([C@@H](C)O)NC(=O)[C@@H]2CCCN2C(=O)[C@@H]2CCCN2C1=O, also called 3BP-3194) [Ac-Met-[Cys(3MeBn)-Pro-Pro-Thr-Glu-Phe-Cys]-Ala-His-Phe-Arg-Asp-NH2] | 7.1 pIC50 and 8 pIC50 | 7.1 pIC50 and 8 pIC50 | – | –
Hexanoyl-CTQPFPCD-NH2 (linker 1-7 via tMeBn(DOTA-PP); SMILES CCCCCC(=O)N[C@H]1CSCc2cc(cc(CN3CCN(C(=O)CN4CCN(CC(=O)O)CCN(CC(=O)O)CCN(CC(=O)O)CC4)CC3)c2)CSC[C@@H](C(=O)N[C@@H](CC(=O)O)C(N)=O)NC(=O)[C@@H]2CCCN2C(=O)[C@H](Cc2ccccc2)NC(=O)[C@@H]2CCCN2C(=O)[C@H](CCC(N)=O)NC(=O)[C@H]([C@@H](C)O)NC1=O) [Hex-[Cys(tMeBn(DOTA-PP))-Thr-Gln-Pro-Phe-Pro-Cys]-Asp-NH2] | – | – | ≤ 6 | –
CPPTQFX (not fully specified; N-term Hex; X7 = AET; Cys1/AET7 thioether-cyclised via tMeBn(InDOTA-AET), also called 3BP-3713) [Hex-[Cys(tMeBn(InDOTA-AET))-Pro-Pro-Thr-Gln-Phe-AET]] | – | – | – | > 8
Hexanoyl-C[Nleu]PTQFC-NH2 (linker 1-7 via mXylylene; SMILES CCCCCC(=O)N[C@H]1CSCc2cccc(c2)CSC[C@@H](C(N)=O)NC(=O)[C@H](Cc2ccccc2)NC(=O)[C@H](CCC(N)=O)NC(=O)[C@H]([C@@H](C)O)NC(=O)[C@@H]2CCCN2C(=O)CN(CC(C)C)C1=O) [Hex-[Cys(3MeBn)-Nleu-Pro-Thr-Gln-Phe-Cys]-NH2] | – | – | ≤ 6 | –
Hexanoyl-C[Nlys]PTQFC-NH2 (linker 1-7 via mXylylene; SMILES CCCCCC(=O)N[C@H]1CSCc2cccc(c2)CSC[C@@H](C(N)=O)NC(=O)[C@H](Cc2ccccc2)NC(=O)[C@H](CCC(N)=O)NC(=O)[C@H]([C@@H](C)O)NC(=O)[C@@H]2CCCN2C(=O)CN(CCCCN)C1=O) [Hex-[Cys(3MeBn)-Nlys-Pro-Thr-Gln-Phe-Cys]-NH2] | – | – | ≤ 6 | –
N4Ac-[Ttds(6)]E[Nle]CPPTEFC-OH (linker 4-10 via 3MeBn; not fully specified (residue 2); printed as N4Ac-Ttds-Glu(AGLU′)-Nle-[Cys-(3MeBn)-Pro-Pro-Thr-Glu-Phe-Cys]-OH) [N4Ac-Ttds-Glu(AGLU′)-Nle-[Cys-(3MeBn)-Pro-Pro-Thr-Glu-Phe-Cys]-OH] | – | – | ≤ 6 | –
{PentylNH‑urea}-CPPTQFCD-NH2 (linker 1-7 via mXylylene; SMILES CCCCCNC(=O)N[C@H]1CSCc2cccc(c2)CSC[C@@H](C(=O)N[C@@H](CC(=O)O)C(N)=O)NC(=O)[C@H](Cc2ccccc2)NC(=O)[C@H](CCC(N)=O)NC(=O)[C@H]([C@@H](C)O)NC(=O)[C@@H]2CCCN2C(=O)[C@@H]2CCCN2C1=O, also called 3BP-3425) [PentylNH-urea-[Cys(3MeBn)-Pro-Pro-Thr-Gln-Phe-Cys]-Asp-NH2] | > 8 pIC50 | 7.1 pIC50 and 8 pIC50 | – | –
N4Ac-[APAc][Nle]CPPTEFC-OH (linker 3-9 via 3MeBn(3)) [N4Ac-APAc-Nle-[Cys-(3MeBn)-Pro-Pro-Thr-Glu-Phe-Cys]-OH] | – | – | ≤ 6 | –
